Measurements: US20060121032A1

Target: extracellular region of human F158 FcγRIIIa with C-terminal 6×His-tag and GST-tag (human) (UniProt P08637)
Experiment: SPR, receptor on chip

extracellular region of human F158 FcγRIIIa with C-terminal 6×His-tag and GST-tag (human), sequence (P08637 17-208): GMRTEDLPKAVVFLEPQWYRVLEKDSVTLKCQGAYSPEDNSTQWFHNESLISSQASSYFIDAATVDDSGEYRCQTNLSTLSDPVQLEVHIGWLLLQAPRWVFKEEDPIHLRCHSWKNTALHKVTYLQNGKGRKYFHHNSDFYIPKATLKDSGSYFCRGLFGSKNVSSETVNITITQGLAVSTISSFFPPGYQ

Kd	Substance
730 nM	WT alemtuzumab (antibody)
72 nM	alemtuzumab I332E (antibody)
285 nM	alemtuzumab S298A (antibody)
156 nM	alemtuzumab S298A/E333A/K334A (antibody)
550 nM	alemtuzumab V264I (antibody)
52 nM	alemtuzumab V264I/I332E (antibody)

Target: FcγRIIIa on human PBMCs expressing heterozygous V158/F158 FcγRIIIa (human) (UniProt P08637)
Experiment: cell-based or functional assay

FcγRIIIa on human PBMCs expressing heterozygous V158/F158 FcγRIIIa (human), sequence (P08637 17-254): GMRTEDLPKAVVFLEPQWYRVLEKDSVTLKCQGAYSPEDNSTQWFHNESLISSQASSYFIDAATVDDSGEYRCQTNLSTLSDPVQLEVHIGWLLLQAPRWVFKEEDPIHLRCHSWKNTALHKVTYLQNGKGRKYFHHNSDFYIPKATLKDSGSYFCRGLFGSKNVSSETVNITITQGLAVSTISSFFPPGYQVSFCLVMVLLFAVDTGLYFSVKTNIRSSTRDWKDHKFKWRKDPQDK

ADCC EC50 (ng/ml), DoHH-2 target cells, human PBMCs	ADCC log(EC50), DoHH-2 target cells, human PBMCs	Substance
3 ng/mL	0.49 log(ng/ml)	alemtuzumab S239D/I332E (antibody)
4 ng/mL	0.6 log(ng/ml)	alemtuzumab V264I/I332E (antibody)
